Results taken from US12371456B2, “Proteins for the treatment of epithelial barrier function disorders” (Genevive, Inc., priority 2017, dated 2025).

Experiments:
TNF-α = TNF-α production by monocytes in co-culture TEER assay (Luminex); assay type: cell-based, human; conditions: pre-incubated 6 hours prior to HK E. coli; FIG. 2A
Description: Production of the pro-inflammatory cytokines TNF-α and IL-23 by monocytes was measured in the tissue culture supernatant from the basolateral chamber of the co-culture TEER assay performed in Example 2. Following TEER readings, the supernatants were centrifuged at 10,000 g for 5 minutes at 4° C. to remove cell debris. Luminex analysis was performed according to the manufacturer's instructions (Magpix instrument and xPonent software version 4.2; Luminex Corporation (Austin, TX)). Luminex analysis was performed to determine the pg/ml concentration of TNF-α and IL-23 produced by monocytes. Luminex analysis utilizes a bead-based system for quantification of multiple cytokines from a single sample. Like an ELISA, Luminex beads are coated with a capture antibody, and incubation with samples allows the target to bind to the capture antibody. Beads are washed and incubated with a fluorescently labeled detection antibody for quantification of bound target. Cytometric analysis is used to differentiate bead populations, which are loaded with differential fluorescent dyes, and to quantify cytokine levels by measuring detection antibody signal. TNF-α production in untreated cells and cells pre-incubated with SG-14 for 6 hours prior to HK E. coli treatment were normalized to pg/ml concentrations elicited by HK E. coli which was set to 1.0. […]

muc2 = muc2 gene expression in epithelial cell monolayer (qRT-PCR); assay type: cell-based, human; conditions: SG-14 1 pg/ml (40 nM) 6 hours prior to HK E. coli for 24 hours; p=0.87; FIG. 4
Description: Gene expression was measured in the epithelial cell monolayer from the apical chamber of the co-culture TEER assay described in Example 2. Total RNA was isolated from the epithelial cell monolayer, cDNA was synthesized. qRT-PCR was performed on cDNA generated from the HCT8 & HT29-MTX cells treated with SG-14 ([…]; 40 nM) for 6 hours prior to addition of HK E. coli for 24 hours. muc2 gene expression is graphed as mean fold change ±SEM. Statistical analysis was performed by a one-way ANOVA compared to HK E. coli and a Fishers LSD test was used for multiple comparisons.

[1] = test system: HCT8 enterocyte and HT29-MTX goblet cell lines; assay: Oris Cell Migration assay (epithelial cell wound healing); assay type: cell-based, human; conditions: 48 hours; SG-14 1 μg/ml, EGF 30 ng/ml, staurosporine 100 nM; FIG. 5
Description: The 96 well Oris Cell Migration assay containing plugs preventing cell attachment in the center of each well was used according to the manufacturer's instructions (Platypus Technologies, Madison, WI). The migration assay plates were warmed to room temperature prior to use and plugs were removed from 100% confluence wells prior to cell addition. The HCT8 enterocyte and HT29-MTX goblet cell lines were used at a 9:1 ratio with a total of 5×10^4 total cells added per well (4.5×10^4 HCT8 cells and 0.5×10^4 HT29-MTX cells). Cells were incubated at 37° C.+5% CO2 for 24 hours. Plugs were then removed from all control and sample wells. Control wells included cells treated with the diluent vehicle as the blank, 30 ng/ml epidermal growth factor (EGF) as the positive control, and 100 nM staurosporine as the negative control, all diluted in cRPMI. Sample wells contained SG-14 protein at a concentration of 1 μg/ml diluted in cRPMI. 100% and 0% wells were cultured in cRPMI. […] The green fluorescent viability dye […] was added to all wells at a concentration of […] in PBS containing 0.9 mM CaCl2) and 0.5 mM MgCl2, incubated for 30 min at 37° C.+5% CO2, the dye was removed and cells were washed in PBS containing 0.9 mM CaCl2) and 0.5 mM MgCl2 and fluorescence was measured. […] Samples were normalized between 100% and 0% samples and values expressed as a percent growth.

[2] = test system: DSS model of inflammatory bowel disease; assay: DSS model: gross pathology score; assay type: in vivo, C57BL/6 mice; conditions: FIG. 9
Description: Eight-week old C57BL/6 mice were housed 5 animals were cage and given food and water ad libitum for 7 days. Following the 7-day acclimation period, treatments were initiated concurrently with addition of 2.5% DSS to the drinking water. […] The mice were treated with 2.5% dextran sodium sulfate (DSS) in their drinking water for 6 days. Treatments were continued with SG-14 or […]-GLP2 twice a day (b.i.d.) in the morning and evening (every 8 and 16 hr) with i.p. injections at 50 nmoles/kg. Fresh 2.5% DSS drinking water was prepared every 2 days. Gross pathology observations were made in mice included in the concurrent DSS model performed in this Example. […] The scoring system used was: (0)=no gross pathology, (1)=streaks of blood visible in feces, (2)=completely bloody fecal pellets, (3) bloody fecal material visible in cecum, (4) bloody fecal material in cecum and loose stool, (5)=rectal bleeding. The graph in FIG. 9 represents data pooled from the single experiment (n=10).

[3] = test system: DSS model of inflammatory bowel disease; assay: DSS model: colonic tissue histopathology score; assay type: in vivo, C57BL/6 mice; conditions: FIG. 12A
Description: Eight-week old C57BL/6 mice were housed 5 animals were cage and given food and water ad libitum for 7 days. Following the 7-day acclimation period, treatments were initiated concurrently with addition of 2.5% DSS to the drinking water. […] The mice were treated with 2.5% dextran sodium sulfate (DSS) in their drinking water for 6 days. Treatments were continued with SG-14 or Gly2-GLP2 twice a day (b.i.d.) in the morning and evening (every 8 and 16 hr) with i.p. injections at 50 nmoles/kg. Fresh 2.5% DSS drinking water was prepared every 2 days.
Colon tissue was collected from mice in the DSS model described in this Example 7. Tissues were fixed in 10% formalin, processed for paraffin embedding and sectioned. Tissue sections were stained with Hematoxylin and Eosin and scored for pathology by a pathologist specializing in gastrointestinal disease. The scoring system used multiple pathology readouts including inflammation, edema, transmural inflammation, mucosal hyperplasia, dysplasia, loss of mucosal architecture, the extent of tissue affected, and the extent of tissue affected by the most severe pathology. Each readout was scored on a scale of 0-4 and a total score was generated by totaling all readout values for each treatment. […] The graph in FIG. 12A and images in […] represent data from the single experiment (n=10).

B1: SG-14: Eubacterium eligens protein comprising SEQ ID NO:3; tested form expressed in E. coli, with exogenous GPLG at N-terminus and PHRD at C-terminus (protein)
chain: GCARNSTSTTTASGGETTITSAITKEDTDVTHADDAENYRVSITGDFTVTSDTSDGVTQSGSVYTITKAGEYTVTGLLSEGQLIVDAGNENEVTIVLNGTSITCSSGSPIYVKNASEVKIKSEENSFNEVIDNRNEATEDSSDDAGNAAIYATCDLKLVGKGALVVTGNYNNGIQSKDDLSIKNVIVKVTAVNNAVKVNDAVDIESGNIIAISAKGDGIKTSNSSISNKGNQKGIVTITSGNIDIYAACDGIDASYGADISGDGNLNIYTDTYSEYSEEVTSSGSSSGTSSGRDSSANKSASANTVSYVATSDTIANAPSGFGGGNMGSGNAPDMSNGNAPNMNGSSDRNKTGGNRPGMPGDFNESGNSSGQSYSTKGIKAESEINISGFTINICSTDDGIHANSDSGVLETGEDGKGTIVINGGSITISSGDDGMHADKQLDVNDGYINVVTSYEGLEAMTINLNGGKIYVYATDDGINACTGDGKTSPIVNVTGGYIDVTTTSGDTDGIDSNGNYVQTGGFVLVKGGSSSGNVSGSIDVDGTVTITGGTCVALGGVCETPVNSANAYVLGSVSFSSGSYSLKDSSGNEVISFTVDGSFSNGWICSDTLTTGSSYTLYRGADSIADWTQE
modifications: N-terminal GPLG and C-terminal PHRD
For B1, the “TNF-α production normalized to HK E. coli (set to 1.0)” value (TNF-α) was 0.77, the “muc2 gene expression vs HK E. coli without pre-treatment” value (muc2) was “slight inhibition” and the “Wound healing (percent growth)” value [1] was “significant increase in growth”. The “Gross pathology score (0-5) vs vehicle treated DSS mice” value ([2]; 50 nmoles/kg i.p. b.i.d., 2.5% DSS) was “significantly improved gross pathology”, the “Clinical scores vs DSS mice treated with Gly2-GLP2” value [2] was “No differences” and the “Colon pathology scores vs positive control Gly2-GLP2” value [3] was “further reduced colon pathology scores significantly”. The “Colonic pathology (total histopathology score) vs DSS” value ([3]; H&E sections, readouts scored 0-4) was “significantly reduced colonic pathology”.
